The text below walks through data of US20100036095A1.

For this assay, the target named is C8/C9 (complement components C8 and C9 of normal human serum, in the assembling membrane attack complex) (human), P07357. The assay can be described thus: cell-based or functional assay.
Sequence of C8/C9 (complement components C8 and C9 of normal human serum, in the assembling membrane attack complex) (human), P07357 (P07357 31-584 limits assumed, chain 1 of 4): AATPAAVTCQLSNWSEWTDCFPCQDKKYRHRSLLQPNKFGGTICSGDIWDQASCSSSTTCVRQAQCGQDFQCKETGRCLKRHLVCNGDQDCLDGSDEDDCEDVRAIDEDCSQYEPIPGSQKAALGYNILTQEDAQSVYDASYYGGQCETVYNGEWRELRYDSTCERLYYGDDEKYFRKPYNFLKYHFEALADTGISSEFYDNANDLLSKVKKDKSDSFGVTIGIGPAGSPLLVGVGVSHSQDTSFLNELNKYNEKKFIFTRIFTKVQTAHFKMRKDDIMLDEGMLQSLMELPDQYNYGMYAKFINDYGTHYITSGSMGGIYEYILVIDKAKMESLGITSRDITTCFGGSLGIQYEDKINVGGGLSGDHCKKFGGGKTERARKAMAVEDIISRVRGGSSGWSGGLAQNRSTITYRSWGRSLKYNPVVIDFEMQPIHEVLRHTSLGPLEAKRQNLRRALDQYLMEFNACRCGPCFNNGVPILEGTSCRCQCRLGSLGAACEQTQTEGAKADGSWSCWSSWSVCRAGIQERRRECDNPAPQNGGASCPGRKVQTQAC
Sequence of C8/C9 (complement components C8 and C9 of normal human serum, in the assembling membrane attack complex) (human), P07357 (P07358 55-591 limits assumed, chain 2 of 4, further chain): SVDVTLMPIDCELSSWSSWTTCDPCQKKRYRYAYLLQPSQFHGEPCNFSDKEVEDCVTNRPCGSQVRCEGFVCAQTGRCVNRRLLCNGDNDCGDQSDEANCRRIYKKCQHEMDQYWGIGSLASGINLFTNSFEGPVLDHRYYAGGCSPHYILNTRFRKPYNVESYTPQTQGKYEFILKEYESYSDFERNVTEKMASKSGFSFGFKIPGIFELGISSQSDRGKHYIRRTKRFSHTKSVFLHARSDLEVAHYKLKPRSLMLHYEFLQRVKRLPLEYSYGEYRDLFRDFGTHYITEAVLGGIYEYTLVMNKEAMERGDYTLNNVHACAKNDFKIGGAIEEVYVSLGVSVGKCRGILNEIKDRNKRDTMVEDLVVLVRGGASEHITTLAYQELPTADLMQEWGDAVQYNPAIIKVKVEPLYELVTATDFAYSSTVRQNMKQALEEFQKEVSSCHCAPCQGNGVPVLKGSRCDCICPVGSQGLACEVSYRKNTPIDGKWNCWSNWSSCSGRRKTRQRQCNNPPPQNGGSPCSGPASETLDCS
Sequence of C8/C9 (complement components C8 and C9 of normal human serum, in the assembling membrane attack complex) (human), P07357 (P07360 21-202 limits assumed, chain 3 of 4, further chain): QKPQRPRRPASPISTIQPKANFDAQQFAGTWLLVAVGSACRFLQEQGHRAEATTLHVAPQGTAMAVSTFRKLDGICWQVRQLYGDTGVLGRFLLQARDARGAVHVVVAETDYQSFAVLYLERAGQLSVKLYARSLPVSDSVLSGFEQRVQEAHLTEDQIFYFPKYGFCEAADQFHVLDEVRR
Sequence of C8/C9 (complement components C8 and C9 of normal human serum, in the assembling membrane attack complex) (human), P07357 (P02748 22-559 limits assumed, chain 4 of 4, further chain): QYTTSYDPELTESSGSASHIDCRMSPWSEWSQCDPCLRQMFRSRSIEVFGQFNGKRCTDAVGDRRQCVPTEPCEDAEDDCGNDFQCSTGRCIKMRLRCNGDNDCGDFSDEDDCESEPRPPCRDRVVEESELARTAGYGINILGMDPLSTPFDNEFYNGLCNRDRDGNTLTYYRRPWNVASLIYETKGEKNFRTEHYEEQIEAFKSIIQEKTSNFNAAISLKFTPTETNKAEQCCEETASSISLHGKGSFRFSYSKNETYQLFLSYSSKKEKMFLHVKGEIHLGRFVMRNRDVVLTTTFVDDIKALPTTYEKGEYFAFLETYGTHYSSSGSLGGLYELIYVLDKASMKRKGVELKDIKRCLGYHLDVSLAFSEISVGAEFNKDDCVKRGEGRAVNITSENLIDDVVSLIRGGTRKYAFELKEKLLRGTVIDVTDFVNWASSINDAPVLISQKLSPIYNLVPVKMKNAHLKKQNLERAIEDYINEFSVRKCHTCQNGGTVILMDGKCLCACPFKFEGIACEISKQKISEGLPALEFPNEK

B1: CR2-CD59 fusion protein containing CD59 T51A/S20A (protein)
chain: ISCGSPPPILNGRISYYSTPIAVGTVIRYSCSGTFRLIGEKSLLCITKDKVDGTWDKPAPKCEYFNKYSSCPEPIVPGGYKIRGSTPYRHGDSVTFACKTNFSMNGNKSVWCQANNMWGPTRLPTCVSVFPLECPALPMIHNGHHTSENVGSIAPGLSVTYSCESGYLLVGEKIINCLSSGKWSAVPPTCEEARCKSLGRFPNGKVKEPPILRVGVTANFFCDEGYRLQGPPSSRCVIAGQGVAWTKMPVCSGGGGSLQCYNCPNPTADCKTAVNCSADFDACLITKAGLQVYNKCWKFEHCNFNDVATRLRENELTYYCCKKDLCNFNEQLEN
B1: the inhibition of complement-mediated lysis of sensitized CHO cells by soluble protein in normal human serum (fold of wt CR2-CD59) was found to be 3.
